# Assay results: the supplement of paper PMC9732359
# ± gives the uncertainty stated by the source.
# Test: protein stability index of a GFP-peptide fusion (yeast GPS) (PSI 1-4); higher = more stable; sorted into four equal gates, so the index is relative within each strain
# Conditions: ubr1∆
# How it was run: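 Yeast carrying a pooled library were grown to mid-log phase in leucine-free medium. Each library plasmid expresses Cherry and has a tiled 17-residue yeast protein peptide fused downstream of GFP. Cells were sorted into four equal gates by GFP/Cherry ratio, and plasmids from each gate were PCR-amplified, Illumina-sequenced and assigned to strains by barcode. Summing, across gates, the read frequency times the gate number gave each peptide's protein stability index.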
row,Sequence,protein stability index
1,LIVDTHVQFRLGNVDAF [PRP8],1.72 ± 0.066
2,LKIIYTGLCSFDYSVIL [YJL039C/NUP192],1.59 ± 0.071
3,LKKNNYNSFPHSNLEKI [SIR4],3.17 ± 0.054
4,LKKRYDLSYNFNVHEVP [YMR129W/POM152],2.82 ± 0.042
5,LKKVQQQQQAAALANAN [SWI1],1.78 ± 0.064
6,LKLCLGDHSSVPVALKG [YMR129W/POM152],3 ± 0.048
7,LKLLVKLYTFLARRTDA [RPL18A],1.97 ± 0.059
8,LKLNHIIANINSFTKGN [SNU114],1.84 ± 0.035
9,LKMQQQQQQQQQQQQQQ [GAL11],2.64 ± 0.067
10,LKNCKISNINIPISSET [SMC1],2 ± 0.067
11,LKNKNFKCQEKDKGVYV [SIR2],3.27 ± 0.17
12,LKNMLYVLSTAVEFESV [BRR2],1.42 ± 0.032
13,LKPDLNKITNQGVTCLH [NAS6],2.38 ± 0.059
14,LKQDLKKISSFKSLIDE [YGL172W/NUP49],3.06 ± 0.034
15,LKQHNQNNLPPNFFLTL [BRR2],2.94 ± 0.071
16,LKRFPKMSVTCNAQPIT [BRR2],1.9 ± 0.037
17,LKSASKETAPVIDTLAA [RPL28],2.12 ± 0.087
18,LKSHYYQTCKNSEYLKR [SMC2],1.85 ± 0.046
19,LKTRDWIVVLPWFWLLP [POP1],2.02 ± 0.1
20,LKTVIILSSLYLLSIWV [CYT1],1.17 ± 0.056
21,LKVLSEHLDCMNFISKE [PCI8],3.03 ± 0.061
22,LKWVAVVPDLGHLNGHT [SSN2],3.16 ± 0.054
23,LKYLDDLKAQFQELDSK [RPN9],3.2 ± 0.064
24,LLDNEIRIFRSELQRLS [RPT5],3.03 ± 0.21
25,LLDTNSLEENAMSTVTL [SKI6],2.89 ± 0.061
26,LLEETQAKLKKNVETLE [SMC4],3.51 ± 0.071

row,Sequence,protein stability index
1,LLEFFELVFSKGVYLIL [YML103C/NUP188],2.26 ± 0.076
2,LLERYIGNLITRQFEGR [PRP8],1.99 ± 0.071
3,LLFNNDFPLLKVLAAHT [RRP40],1.09 ± 0.058
4,LLGKESFKKIIKFLLTF [YCS4],1.65 ± 0.06
5,LLICIGTSLKVAPVSEI [SIR2],1.79 ± 0.05
6,LLIRKLPFQRLVREIAQ [HHT1],1.73 ± 0.097
7,LLISLNILFSLWKLLST [YLR018C/POM34],1.18 ± 0.067
8,LLKEKPNALKPLSESLR [RRP6],2.94 ± 0.044
9,LLKELSKNAQFICTTFR [SMC3],1.94 ± 0.048
10,LLKKATKPEVASDMSDE [CDC53],2.89 ± 0.11
11,LLKKKDDPSKVRLLCRS [YLR335W/NUP2],2.61 ± 0.15
12,LLLKLASPHASVRTAVF [ECM29],1.49 ± 0.029
13,LLLLSLFKKITNVNPSK [YML103C/NUP188],1.93 ± 0.027
14,LLNILSGLPTCDYYNTF [RPN2],2.3 ± 0.095
15,LLNINGSRKVAGILRGY [SMX2],1.52 ± 0.14
16,LLPPIKIELIKNNLLIP [RPN12],2.09 ± 0.044
17,LLREKQRVRNMRELGLI [YOR098C/NUP1],1.13 ± 0.19
18,LLRNLESKMRQQEAKYR [YDL088C/ASM4],1.36 ± 0.059
19,LLSDVNQNQRNVNETMS [SMC3],3.01 ± 0.082
20,LLSEHDDHNGEVWSVSW [YGL100W/SEH1],2.66 ± 0.1
21,LLSIPISCPLIGVIQLA [FAS1],1.08 ± 0.064
22,LLSKLLLKHPFKAIHGS [YCS4],2.44 ± 0.035
23,LLSLISTTAALQSISSL [RPN7],2.24 ± 0.049
24,LLSQFGIKVLPETCLFV [YML103C/NUP188],1.33 ± 0.059
25,LLTNSNNGSSNNNTQNT [SNF5],3.18 ± 0.055
26,LLVERLKEDDSSLYEAS [RPN1],3.16 ± 0.18
